B1: PaF4′OMT (Plagiochasma appendiculatum) (protein)
chain: MAVSTNGKTSEGVSDVSRTKNITNGNGMDMSVSANVASIGSVSATPLSPEDKRDHVVAINFLLGWVQTWALKAVVTMRIPDIISKAPMDALTAREIISQIQCKNPSNAVPLLERLMRFMVCKGFFSESVNGENEIAYELNGVSKMYVTDHEMSVVEWVNVAFHRSGIPALTRMHEAITEDVCPWDQAHGMPIYAHNPKFPELGDFFHKAMIVHSNFLTKILAEEYEGFKDFKVLVDVGGSLGNNLALILRFHPHLRGINFDMPSVIAGAPSFPGVEHVGGNFYESVPSGDAIMLMAILHNNSDENCVKILRSVHAALPEDGKLIVAEYIMTNEADHNGERIRLLDMLMLVQFRGGEERTFEHHKTLYEAAGFRHYKLIKTSGPMDIIEVRK
notes: pET32a fusion with N-terminal His6 tag kept (about 60 kDa on SDS-PAGE); E. coli BL21(DE3)

Tests used:
PaF4′OMT = target: T1, PaF4′OMT (Plagiochasma appendiculatum, UniProt A0A1X9Y2Y6); experiment: HPLC product quantification, Michaelis-Menten fit; type: biochemical; conditions: substrate inhibition by luteolin; SAM as methyl donor; pH 7.5, 37 °C
T1 construct: pET32a fusion with N-terminal His6 tag kept (about 60 kDa on SDS-PAGE); E. coli BL21(DE3)
Description: HPLC product quantification, Michaelis-Menten fit on PaF4′OMT

purified protein = substrate: O=c1cc(-c2ccc(O)cc2)oc2cc(O)cc(O)c12; experiment: purified protein; conditions: SAM as methyl donor, no Mg2+ needed, pH 7.5, 37 °C
[1] = substrate: O=c1cc(-c2ccc(O)c(O)c2)oc2cc(O)cc(O)c12; experiment: HPLC product quantification, Michaelis-Menten fit; type: biochemical, Plagiochasma appendiculatum; conditions: SAM as methyl donor, no Mg2+ needed, pH 7.5, 37 °C

| Molecule | Ki (PaF4′OMT) | Km (purified protein) | Vmax (purified protein) | kcat (purified protein) | Km [1] | Vmax [1] | kcat [1] |
| --- | --- | --- | --- | --- | --- | --- | --- |
| O=c1cc(-c2ccc(O)c(O)c2)oc2cc(O)cc(O)c12 [luteolin] | 292.8 ± 69.03 µM |  |  |  |  |  |  |
| B1 |  | 31.0 ± 5.90 µM | 0.163 µmol/min/mg | 0.117 s⁻¹ | 52.1 ± 10.54 µM | 0.111 µmol/min/mg | 0.08 ± 0.009 s⁻¹ |

Reference: article PMC6154639 (Molecules : A Journal of Synthetic Chemistry and Natural …, 2017)
